According to the nanobody polyreactivity screen of Harvey et al. (2022):

Test: yeast display, Sf9 membrane polyspecificity reagent, FACS + sequencing; frameworks hold sequencing errors
How it was run: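 A synthetic nanobody library was expressed on Saccharomyces cerevisiae BJ5465 by galactose induction for 36–48 hours. The library was stained for 1 hour at 4 °C with 10% biotinylated, detergent-solubilized Sf9 membrane reagent and enriched with streptavidin microbeads before FACS. Low and high (top ~1%) gates were set on anti-HA fluorescence for expression and streptavidin fluorescence for reagent binding, and each polyreactivity label reflects the gate of origin.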

Sequence	polyreactivity (PSR sort gate)
QVQLVESGGGLVQAGGSLRLICAASGRIFHYYMGWYRQAPGKEMELVAVISSGDGTYYADSVKGRFTISRDNAKYTFYLQMNSLKPEDTAVYYWAADAPREYDDHYKYDDDYCGQGTQVTVSS	low polyreactivity
QVQLVESGGGLVQAGGSLRLICAASGRIFIYYAMGWYRQAPGKERELVAAITGRDGSTYYADSVKGRFTISRDNAKNTVDLQKISLKPEDTAVYYCAASRFYFRRTFGGYPKLASYDYWGQGTQVTVSS	low polyreactivity
QVQLVESGGGLVQAGGSLRLICAASGRIFPGYTMGWYRQAPGKEREFFAAISYSGGSTYADSVKGRFTISRDNAKNTVYLQMNSLKPEDTAVYYCAVVLQHWLDMYYWGQVTQVTVSS	low polyreactivity
QVQLVESGGGLVQAGGSLRLICAASGRIFQIYAMGWYRQAPGKEREVVAAISSGGTTYYADSVKGRFTISRDNAKNTVYLQMNSLKPEDTAVYYCAAVAWDLYSDGQEYNYWGQGPQVTVSS	high polyreactivity
QVQLVESGGGLVQAGGSLRLICAASGRIFRGYVMGWYRQAPGKERELVASIDRSGASTYYADSVKGRFTISRDNAKNTVYLQMNSLKPEDTAVYYCNALVYLRTSRYYYWGQGTQVTVSS	high polyreactivity
QVQLVESGGGLVQAGGSLRLICAASGRIFRRNVMGWYRQAPGKDRELVAAIRGTGSTTYADSVKGRFTISRDNAKNTVYLQMNSLKPEDTAVYYCNAYKGQTGGGGRYGYWGQGTQVTVSS	high polyreactivity
QVQLVESGGGLVQAGGSLRLICAASGRIFRVNAMGWYIQAPGKERELVAGITWSGGSTYYADSVKGRFTISRDNAKNTVYLQMNSLQPEDTAVYSCNAEYSPSYLFYWYEYIYWGQGSQVTVSS	high polyreactivity
QVQLVESGGGLVQAGGSLRLICAASGRIFTYNAMGWYRQAPGKERELVARITSGGNTNYADSVKGRFTISRDNAKNTVYLQMNSLKPEDTAVYYCATGLFWFTNRYGSWGQGTQVTVSS	low polyreactivity
QVQLVESGGGLVQAGGSLRLICAASGRIFYHNAMGWYRQAPGKERELDAAITWSGGSTYYADSVKGRFTISRDNAKNTVYLQMNSLKPEDTAVYYCAALWLVNHYYPSQDYDYWGQGSQVTVSS	high polyreactivity
QVQLVESGGGLVQAGGSLRLICAASGRIIPSYSMGWYRQAPAKEREFVAVIRSSVDGTYYADSVKGRFTISRDYAKNTVYLHMNSLNPDDTSVYYFSADSYPFFIRNLYPVLEGEYGHWGQGTQVNVSS	low polyreactivity
QVQLVESGGGLVQAGGSLRLICAASGRISGRYAMGWYRQAPGKERELVAAITSRGGRTYYADSVKGRFTISRDNAKNTVYLQMNSLKPEDTAVYYCIAVGGYWFDYWGQGTQVTVSS	high polyreactivity
QVQLVESGGGLVQAGGSLRLICAASGRIYRYYAMGWYRQAPGKERELVAAITSDGRTYYADSVKGRFTISRDNAKNTVYLQMNSLKPEDTAVYYCAADHHSYRYGGYYYWGQGTQVTVSS	low polyreactivity
QVQLVESGGGLVQAGGSLRLICAASGRTFDGYVMGLYRQAPGKERELVASIRGTGSTYYADSVKGRFTISRENAKNTVYLQMNSLKPEDTAVYYCAARPGYAYDWGQGTQVTVSS	high polyreactivity
QVQLVESGGGLVQAGGSLRLICAASGRTFDLYAMGWCRQAPGKEREFVAAITKGGGSTYYADSVKGRFTISRDNAKNTVYLQMNSLKPEDTAVYYCAARKYKRIYRISSGIGYYWGQGTQVTVSS	high polyreactivity
QVQLVESGGGLVQAGGSLRLICAASGRTFNWNAMGWYRQAPGKERELVAAITSGGNTYYADSVKGRFTISRDNAKNTVYLQMNSLKPEDTAVYYCAKVTYEGGYRYNYWGQGTQVTVSS	high polyreactivity
QVQLVESGGGLVQAGGSLRLICAASGRTFQYYAMGWYRQAPGKERELVAAITSGGSTYYADSVKGRFTISRDNAKNTVYLQMNSLKPEDTAVYYCAATFYYSGHDDYWGQGTQVTVSS	low polyreactivity
QVQLVESGGGLVQAGGSLRLICAASGRTFRSYAMGWYRQAPGKERELVAAISWSGGSTYYADSVKGRFTISRDNAKNTVYLQMNSLKPVDTAVYYCAAEVYYTYVYILDYWGQGTQVTVSS	high polyreactivity
QVQLVESGGGLVQAGGSLRLICAASGRTFSVNDMGWYRQAPGKERELVAAISFSGGSTYYADSVKGRFTISRDNAKNTVYLQMNSLKPEDTAVYYCAAEAYPSWFYVITGFGIYDYWGQGTQVTVSS	high polyreactivity
QVQLVESGGGLVQAGGSLRLICAASGRTFSYYAMGWYRQAPGKERELVATIRFSGGGTYYADSVKGRFTISRDNAKNTVYLQMNSLKPEDTAVYYCNADSIDPFLYDYWGQGTQVTVSS	low polyreactivity
QVQLVESGGGLVQAGGSLRLICAASGRTFVPYAMGWYRQAPGKERELVAAINSGGSTYYADSVKGRFTSSRDNAKNTVYLQMNSLKPADTAVYDCAAEYWNSRFSYAYGYWGQGTQVTVSS	high polyreactivity
QVQLVESGGGLVQAGGSLRLICAASGRTFVYNTMGWYRQAPGKERELVAAITDRGTSTYYADSVKGRFTISRDNAKNPVYLLLNSLNPEDTAVYYWAKDWLVTEFDYWGQGTQVTVSS	low polyreactivity
QVQLVESGGGLVQAGGSLRLICAASGRTFWSYARGWSRQAPGKERQLVAAIRTSDGITYYADSVKGRFTISRDTAKNTVYLQMNSLKPEDTAVYYCAAENWYKYDYWGQGTQVTVSS	low polyreactivity

Sequence	polyreactivity (PSR sort gate)
QVQLVESGGGLVQAGGSLRLICAASGRTFYVYAMGWYRQAPGKEREFVARITSNGGSTTYADSVKGRFTISRDNAKNTVYLQMNSLKPDDTAVYYCNADYDPEDMDYWGQGTQVTVSS	low polyreactivity
QVQLVESGGGLVQAGGSLRLICAASGRTFYYYAIGWYRQAPGKERELVASISYSAGRTYADSVKGRFTSSRDNAKNTVYLQMNSLKPEDTAVYYCNSDVTTVPYTNDYWGQGTQVTVSS	high polyreactivity
QVQLVESGGGLVQAGGSLRLICAASGRTIWSNAMGRYRHAPGKEWEFVAGISQDGTSRYYADSVKGRFTISRDNAKNTVYLQMNSLKPEDTAVYYCAARSSFRRRSGPTPYGFDYWGQGTQVTVSS	high polyreactivity
QVQLVESGGGLVQAGGSLRLICAASGRTLWSNAMGWYRQAPGKEMELFATISRGGGSTSYADSVKGRFTISRYNAKKTVYLQLYSLKPEDTSVYYCNNYPYIQRTWWYDYWGQGTQVTVSS	high polyreactivity
QVQLVESGGGLVQAGGSLRLICAASGRTSYIDAMGWYREAPGKERELVARIRSGGSTNYADSVKGRFTISRDNAKNPVYVQMNSLKPEDTAVYYCNADFAFSRKYQANPYSAYDYWGQGTQVTVSS	high polyreactivity
QVQLVESGGGLVQAGGSLRLICAASGSIFARYAMGWYRQAPGKERELVAAITGRGGSTYYADSVKGRFTISRDNAKNTVYLQMNSLKPEDTAVYYCNAVGHTSIRRALDILDYWGQGTQVTVSS	high polyreactivity
QVQLVESGGGLVQAGGSLRLICAASGSIFCYAMGWYRQAPGKERELVAGISRGGSTYYADSVKGRFTISRDNAKNTGYLKMNSLKPEDTAVYYCNTAGYYGTPYNYWGQGTQVTVSS	low polyreactivity
QVQLVESGGGLVQAGGSLRLICAASGSIFDYYTRGWYRQAPGKERELVASITQSGGSTYYADSVKGRFTISRDNGKNTVYLQMNSLKPEDTAVYYCAADFSIVKMDYWGQGTQVTVSS	low polyreactivity
QVQLVESGGGLVQAGGSLRLICAASGSIFGHNAMGWYRQAPGKERELVAAISRGTRTNYADSVKGRFTISRDNEKNTVYLQMNSLKPEDTAVYYCNLQPGRGPYVGRKYGYWGQGTQVTVSS	high polyreactivity
QVQLVESGGGLVQAGGSLRLICAASGSIFGSNAMGWYRQAPGKEREFVAVITWRVGDTYYADSVKGRFTISRDNAKNTVYLQMKSLKPEDTAVYYCNVDWKVYGAPDYRIAWKYDYWGQGTQVTVSS	low polyreactivity
QVQLVESGGGLVQAGGSLRLICAASGSIFGVYAMGWYSQAPGKERELVATITRGGSTYYADSVKGRFTISRDNAKNTGYLQMNSLKPEDTSVYYGARAPVYFRHKYYYWGQGTQVTVSS	high polyreactivity
QVQLVESGGGLVQAGGSLRLICAASGSIFLTNAMGWYRQAPGKEREFVAAIDWGCTITYYADSVKGRFTISRDNAKNTVYLQMNSLKPEDTAVYYCGADPTYPYGYWGQGTQVSVSS	low polyreactivity
QVQLVESGGGLVQAGGSLRLICAASGSIFNAYAMGWYRQAPGKEREFVAAITGGGTYYADSVKGRFTISRDNAKNTVYLQMNSLKPEDTAVYYCNADYGTSRHTFWDYESWGQGTQVTVSS	low polyreactivity
QVQLVESGGGLVQAGGSLRLICAASGSIFNGYAMGWYSQAPGKERELVADIRSGGSTYYADSVKGRFTISRDNAKNTVYLQMNSLKPEDTAVYYCAADTITDGYDYWGQGTQVTVSS	low polyreactivity
QVQLVESGGGLVQAGGSLRLICAASGSIFNGYVMGWYRQAPGKERELVASINRGGTTNYADSVKGRFTISRDNAKNTVYLLMNSLKPEETAVYYCAVDDDANSLGGYYVLFDYWGQGTQVTVSS	low polyreactivity
QVQLVESGGGLVQAGGSLRLICAASGSIFPSYAMGWYRQAPGKERELVAAISVSGGRTYYADSVKGRFTISRDNAKYSVYLQMNSLKPEDTAVYYCATVGKQKYDAKYGYWGQGTQVTVSS	high polyreactivity
QVQLVESGGGLVQAGGSLRLICAASGSIFRYYAMGWYRQAPGKERELVAVITRSSSTYYADSVKGRFTISRDNAKNTVYLQMNSLKPEDTAVYDCAARYRSGAAGYNYWGQGTQVTVSS	high polyreactivity
QVQLVESGGGLVQAGGSLRLICAASGSIFSTNTKGWYRQAPGKERELVAAISISGGSTHYADSVKGRFTISRDNAKNPVYLQMNSLKPEYTAVYYCAADLWYYAYSYDYWGRGTQVTVSS	high polyreactivity
QVQLVESGGGLVQAGGSLRLICAASGSIFSYYAMGWYIKAPGKERELVAVINSGGRTNYADSVKGRFTISRDNAKNTVYVQMNSLKPEDTAVYYCAAQCYFVERAGRYYRGEYWGQGTQVTVSS	high polyreactivity
QVQLVESGGGLVQAGGSLRLICAASGSIFTYYAMGWYRQAPGKDRDLVAAINWSGGSTYYADSVKGRFTISRDNAKNTVYLQINSLNPEDTAVYYCSNDYYARRHSPRYDYWGQGTQVTVSS	low polyreactivity
QVQLVESGGGLVQAGGSLRLICAASGSIFVNYAMGWYRQAPGKERELVAAITRSGGGTYYADSVKGRFTISRDNAKNTVYLQMNSLKPEVTAVYYCAARLGYAGNRDGYWGQGTQVTVSS	high polyreactivity
